The results in this text go back to paper PMC11723632 (PLOS Pathogens, 2024).

The target in the experiment is EBOV sGP (secreted form of GP) (Zaire ebolavirus, Mayinga-76 …, UniProt P60170). Nature of the experiment: ELISA. Particulars: both partners purified. For orientation: In an ELISA, binding on a coated surface is turned into a signal by an enzyme label.
Chain of EBOV sGP (secreted form of GP) (P60170 33-305): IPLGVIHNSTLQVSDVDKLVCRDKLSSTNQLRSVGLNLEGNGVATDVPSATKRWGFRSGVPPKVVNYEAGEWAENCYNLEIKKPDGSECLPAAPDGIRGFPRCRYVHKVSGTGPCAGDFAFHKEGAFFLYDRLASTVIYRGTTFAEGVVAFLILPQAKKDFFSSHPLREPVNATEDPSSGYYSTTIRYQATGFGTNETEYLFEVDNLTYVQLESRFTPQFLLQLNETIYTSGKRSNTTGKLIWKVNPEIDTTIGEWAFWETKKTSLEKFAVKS

B1: Nanosota-EB2-His (VHH)
VHH: QVQLQESGGGVVQAGGSLRLSCSASGRTFSNYAMAWFRQAPGKDREFAAGINYNGERTAYADSVKGRFTISRDDAKNTVYLQMNSLKPEDTAVYSCAARPWSIANLAYTYDSWGQGTQVTVSS
Consider B1, for which the binding result was “no binding”.

B2: Nanosota-EB1-His (VHH)
VHH: QVQLQESGGGQVQAGGSLRLSCAASGSTSVIYAMGWYRQAPGKQRELVAAITRGVGSTNYADSVKGRFTISRDNAKNTMYLQMNSLKPEDTAVYYCNARLLVAPPPYEYDYWGQGTQVTVSS
Regarding B2, the binding result is recorded as “binds”.
